± gives the uncertainty stated by the source.

Here are results for 38 sequences from the supplement of paper PMC7877785.

This data set in a line: self-splicing fitness, log relative to wild type (ln ratio); higher = more splicing; Tetrahymena group I intron in knt gene, E. coli kanamycin selection, DiMSum; sequences stand for … in CUCUCU…GGAGGGAAAAGUUAUCAGGCAUGCACCUGGUAGCUAGUCUUUAAACCAAUAGAUUGCAUCGGUUUAAAAGGCAAGACCGUCAAAUUGCGGGAAAGGGGUCAACAGCCGUUCAGUACCAAGUCUCAGGGGAAACUUUGAGAUGGCCUUGCAAAGGGUAUGGUAAUAAGCUGACGGACAUGGUCCUAACCACGCAGCCAAGUCCUAAGUCAACAGAUCUUCUGUUGAUAUGGAUGCAGUUCACAGACUAAAUGUCGGUCGGGGAAGAUGUAUUCUUCUCAUAAGAUAUAGUCGGACCUCUCCUUAAUGGGAGCUAGCGGAUGAAGUGAUGCAACACUGGAGCCGCUGGGAACUAAUUUGUAUGCGAAAGUAUAUUGAUUAGUUUUGGAGUACUCGUGGUCG
A digest of the protocol: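 Library with all eight P1ex-region intron nucleotides randomised, intron inside the knt kanamycin-resistance gene on pET-22b(+), in E. coli BL21(DE3). Cells grew overnight at 37°C or 30°C on LB agar with or without 25 μg/mL kanamycin (plus 100 μg/mL carbenicillin, 50 μM IPTG, 0.2% rhamnose), in six replicate transformations. Pooled colonies were amplicon-sequenced on Illumina HiSeq 2500. DiMSum fitness is the error-weighted combination of wild-type-normalised replicate fold changes, kanamycin versus none.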

Regarding GGAUAGCAAUAUUACGGAGA, the “self-splicing fitness (ln)” value is -2.79 ± 0.26 (30 °C) and -2.33 ± 0.3 (37 °C).

Consider GGAUAGCAAUAUUACGGCAA, for which the “self-splicing fitness (ln)” value reads like this: (30 °C) -0.818 ± 0.19; (37 °C) -0.178 ± 0.2.

As for GGAUAGCAAUAUUACGGCUG, the “self-splicing fitness (ln)” value by setting is: (30 °C) -0.385 ± 0.14; (37 °C) -0.733 ± 0.18.

For the sequence GGAUAGCAAUAUUACGGGAC, the “self-splicing fitness (ln)” value reads like this: (30 °C) -2.5 ± 0.24; (37 °C) -2.15 ± 0.17.

On to GGAUAGCAAUAUUACGGGAU, for which the “self-splicing fitness (ln)” value is, setting by setting: (30 °C) -3.03 ± 0.27; (37 °C) -2.39 ± 0.21.

Take GGAUAGCAAUAUUACGUAAC: the “self-splicing fitness (ln)” value is -1.66 ± 0.15 (30 °C) and -0.538 ± 0.16 (37 °C).

With GGAUAGCAAUAUUACGUAGA, the “self-splicing fitness (ln)” value (30 °C) is -1.01 ± 0.17 and the “self-splicing fitness (ln)” value (37 °C) is -1.4 ± 0.21.

As to GGAUAGCAAUAUUACGUAUU, the “self-splicing fitness (ln)” value reads like this: (30 °C) -3.05 ± 0.2; (37 °C) -2.21 ± 0.28.

Take GGAUAGCAAUAUUACGUCAU: the “self-splicing fitness (ln)” value was -2.02 ± 0.11 (30 °C) and -0.395 ± 0.12 (37 °C).

In the case of GGCAAGCAAUAUUACGAAGA, the “self-splicing fitness (ln)” value reads like this: (30 °C) -2.24 ± 0.18; (37 °C) -0.478 ± 0.12.

As to GGCAAGCAAUAUUACGACCU, the “self-splicing fitness (ln)” value was -0.895 ± 0.12 (30 °C) and -0.997 ± 0.12 (37 °C).

On to GGCAAGCAAUAUUACGCAAA, for which the “self-splicing fitness (ln)” value reads like this: (30 °C) -0.878 ± 0.092; (37 °C) -1.2 ± 0.097.

Take GGCAAGCAAUAUUACGCACC: the “self-splicing fitness (ln)” value (30 °C) was -2.15 ± 0.32 and the “self-splicing fitness (ln)” value (37 °C) is -2.31 ± 0.24.

Take GGCAAGCAAUAUUACGCAGC: the “self-splicing fitness (ln)” value (37 °C) was -2.27 ± 0.28.

On to GGCAAGCAAUAUUACGCAGG, for which the “self-splicing fitness (ln)” value (30 °C) was -2.1 ± 0.12 and the “self-splicing fitness (ln)” value (37 °C) is -2.29 ± 0.2.

For the sequence GGCAAGCAAUAUUACGCAUU, the “self-splicing fitness (ln)” value (30 °C) was -0.374 ± 0.062 and the “self-splicing fitness (ln)” value (37 °C) is 0.591 ± 0.081.

Turning to GGCAAGCAAUAUUACGCUGG, the “self-splicing fitness (ln)” value is -3.31 ± 0.23 (30 °C) and -2.68 ± 0.28 (37 °C).

Turning to GGCAAGCAAUAUUACGGAAA, the “self-splicing fitness (ln)” value is, setting by setting: (30 °C) -1.55 ± 0.12; (37 °C) -1.27 ± 0.13.

Regarding GGCAAGCAAUAUUACGGCGU, the “self-splicing fitness (ln)” value was -0.154 ± 0.088 (30 °C) and 0.316 ± 0.12 (37 °C).

Regarding GGCAAGCAAUAUUACGGGCC, for the setting “30 °C”, the “self-splicing fitness (ln)” value is -2.85 ± 0.39.

On to GGCAAGCAAUAUUACGGUCG, for which the “self-splicing fitness (ln)” value is -0.22 ± 0.072 (30 °C) and 0.553 ± 0.099 (37 °C).

For the sequence GGCAAGCAAUAUUACGUAUC, the “self-splicing fitness (ln)” value reads like this: (30 °C) -0.35 ± 0.063; (37 °C) 0.0433 ± 0.083.

For GGCAAGCAAUAUUACGUGGU, the “self-splicing fitness (ln)” value (30 °C) was -2.43 ± 0.085 and the “self-splicing fitness (ln)” value (37 °C) was -1.57 ± 0.075.

Regarding GGCAAGCAAUAUUACGUUGG, the “self-splicing fitness (ln)” value is -2.5 ± 0.075 (30 °C) and -2.93 ± 0.12 (37 °C).

With GGCCAGCAAUAUUACGAACG, the “self-splicing fitness (ln)” value (30 °C) is -2.65 ± 0.41 and the “self-splicing fitness (ln)” value (37 °C) is -0.764 ± 0.3.

Consider GGCCAGCAAUAUUACGACAA, for which the “self-splicing fitness (ln)” value reads like this: (30 °C) -2.78 ± 0.24; (37 °C) -1.71 ± 0.19.

Regarding GGCCAGCAAUAUUACGACUC, the “self-splicing fitness (ln)” value by setting is: (30 °C) -1.21 ± 0.11; (37 °C) 0.0572 ± 0.13.

Turning to GGCCAGCAAUAUUACGACUU, the “self-splicing fitness (ln)” value by setting is: (30 °C) -0.142 ± 0.084; (37 °C) 0.435 ± 0.11.

As for GGCCAGCAAUAUUACGAGGC, the “self-splicing fitness (ln)” value was -2.66 ± 0.23 (30 °C) and -2.94 ± 0.4 (37 °C).

As to GGCCAGCAAUAUUACGAUUA, the “self-splicing fitness (ln)” value runs as follows: (30 °C) -3.4 ± 0.21; (37 °C) -2.05 ± 0.15.

GGCCAGCAAUAUUACGAUUU: the “self-splicing fitness (ln)” value runs as follows: (30 °C) -1.9 ± 0.12; (37 °C) -0.659 ± 0.13.

Turning to GGCCAGCAAUAUUACGCCUA, the “self-splicing fitness (ln)” value was -1.05 ± 0.15 (30 °C) and -1.05 ± 0.15 (37 °C).

Turning to GGCCAGCAAUAUUACGCUGC, the “self-splicing fitness (ln)” value (37 °C) is -1.67 ± 0.22.

On to GGCCAGCAAUAUUACGCUGG, for which the “self-splicing fitness (ln)” value is, setting by setting: (30 °C) -3.98 ± 0.27; (37 °C) -2.27 ± 0.24.

As for GGCCAGCAAUAUUACGGAAA, the “self-splicing fitness (ln)” value was -1.27 ± 0.11 (30 °C) and -0.606 ± 0.13 (37 °C).

Regarding GGCCAGCAAUAUUACGGCCG, the “self-splicing fitness (ln)” value is, setting by setting: (30 °C) -3.47 ± 0.22; (37 °C) -3 ± 0.23.

As to GGCCAGCAAUAUUACGGCUA, the “self-splicing fitness (ln)” value (30 °C) is -0.439 ± 0.097 and the “self-splicing fitness (ln)” value (37 °C) is -0.0906 ± 0.1.

Take GGCCAGCAAUAUUACGGCUU: the “self-splicing fitness (ln)” value is -3.45 ± 0.21 (30 °C) and -2.68 ± 0.22 (37 °C).
